Measurements published in patent US20200129630A1, “METHODS FOR TREATING CANCER” (BicycleRD Limited, priority 2018, published 2020).
Numbered stars: 1 amine (or outer) side, 2 acyl side, 3 side chain; on linkers, the order of the positions; unused ones are H or OH. Bridge positions count the residues as written; N and C are the ends. Square brackets hold non-standard residues; d marks the D form. Peptide text beside a SMILES is read from it. * marks the point of attachment. X1 = COc1cc2cc(c1Cl)N(C)C(=O)C[C@H](OC(=O)[C@H](C)N(C)C(=O)CCSSC(C)CCC(=O)*)[C@]1(C)O[C@H]1[C@H](C)[C@@H]1C[C@@](O)(NC(=O)O1)[C@H](OC)/C=C/C=C(\C)C2; 1Nal = N[C@@H](Cc1cccc2ccccc12)C(=O)O; TBMB = c1c(C[*:1])cc(C[*:3])cc1C[*:2]; Tle = CC(C)(C)[C@H](N)C(=O)O; βAla = NCCC(=O)O; Sar = CNCC(=O)O

What was measured:
MOLP-8 = assay: In vitro cytotoxicity (CellTiter-Glo) MOLP-8; format: cell-based; conditions: MOLP-8, Myeloma
From the text: (§1) Table 1 and Table 2 Notes: in general regression and stable disease correlated with the in vitro cytotoxicity and MT1-MMP expression. Female BALB/c mice n=3/group animals dosed twice per week except EBC-1 three per week. Tumor growth inhibition (TGI) (%)=[1−(Ti−T0)/(Vi−V0)]×100; Ti is the average tumor volume of a treatment group on a given day, TO is the average tumor volume of the treatment group on the day of treatment start, Vi is the average tumor volume of vehicle control group on the same day with Ti, and V0 is the average tumor volume of vehicle group on the day of treatment start. A one-way ANOVA was performed to compare tumor volume among groups, and when a significant F-statistics (a ratio of treatment variance to the error variance) was obtained, comparisons between groups were carried out with Games-Howell test. All data were analyzed using GraphPad Prism.* p<0.05, ** p<0.01, *** p<0.001. In vitro cytotoxicity was measured by CellTiter-Glo®, MT1-MMP membrane H score from immunohistochemistry staining, NM not measured. Tumor size on Day 1 of dosing.

[1] = Distribution into blood cells; format: in vitro ADME; conditions: comparable across human and all preclinical species tested
[2] = nu/nu BALB/c mouse PK study; format: in vivo; conditions: plasma, 15 mg/m2, 15 mg/m^2 IV
[3] = Stability in plasma in vitro, monkey; format: in vitro ADME; conditions: 37° C.
Description: (§2) The stability of BT1718 was assessed in plasma and whole blood from humans, monkey, dog, mouse and rat. […] The mechanism for the difference in stability of the BT1718 peptide in whole blood between the different species is unknown.

[4] = Stability in whole blood in vitro, human; format: in vitro ADME; conditions: 37° C.
Description: as §2

[5] = Stability in whole blood in vitro, monkey; format: in vitro ADME; conditions: 37° C.
Description: as §2

[6] = Plasma protein binding, rat; format: in vitro ADME, rats; conditions: read-out: free fraction
Description: (§3) Plasma protein binding of BT1718 was also assessed. The mean plasma protein binding of the BT1718 peptide ranged from 87% to 98%, with the free fraction of BT1718 being 13% in human, 2.6% in rats, 7.5% in mice, 3.8% in monkey and 1.5% in dog plasma, the results had no correlation to the plasma and whole blood stability data. […] Plasma protein binding of unconjugated DM1, has previously been reported, with the unbound fraction being 7% in human and monkey and 3% in rat.

EBC-1 = assay: In vitro cytotoxicity (CellTiter-Glo) EBC-1; format: cell-based; conditions: EBC-1, Lung
From the text: as §1

[7] = Stability in whole blood in vitro, dog; format: in vitro ADME; conditions: 37° C.
Description: as §2

advanced solid tumors = assay: Phase I/IIa trial of BT1718 in patients with advanced solid tumors: safety and efficacy; format: in vivo
From the text: This is a multi-center, FIH, Phase I/IIa, open label dose escalation trial with an expansion phase, in patients with advanced solid tumors.
A DLT is defined as a probably or highly probably drug-related AE occurring during Cycle 1 (i.e. the first 28 days) which fulfils one or more of the following criteria, despite appropriate supportive clinical management (however, all clinically significant toxicities will be considered in dose review decisions and the determination of the Phase II dose): • Neutropenia Grade 4 (absolute neutrophil count [ANC]<0.5×10^9/L) for ≥seven days *see note; • Febrile neutropenia with Grade 3 or 4 neutropenia ANC <1.0×10^9/L and a single temperature of […] or a sustained temperature ≥38° C. for more than one hour); • Clinically significant infection (documented clinically or microbiologically) with Grade 3 or 4 neutropenia (ANC <1.0×10^9/L); • Thrombocytopenia Grade 4: a) for ≥five days *see note, or b) associated with active bleeding, or c) requiring platelet transfusion. • Grade 3 or 4 toxicity to organs other than the bone marrow, EXCLUDING: Grade 3 nausea; • Grade 3 or 4 vomiting in patients who have not received optimal treatment with anti-emetics; or • Grade 3 or 4 diarrhoea in patients who have not received optimal treatment with anti-diarrhoeals. • Transient, asymptomatic Grade 3 biochemical abnormalities if agreed by the Sponsor and the Study Team, including the Chief Investigator (CI). • Fatal event; • Any other related toxicity which leads to discontinuation of treatment in Cycle 1, or to a delay in dosing of >7 days (excluding where the delay is >7 days due to scheduling rather than a clinical decision); • Any other related toxicity that is greater than at baseline and is judged to be a DLT by the Sponsor, including the CI and Principal Investigators (PIs).
Definitions of disease status is in accordance with RECIST (Response Evaluation Criteria in Solid Tumors) 1.1, based on documentation of target and non-target lesions as specified in the BT1718 study protocol. All clinical measurements to assess response must be performed within one week of the first dose of BT1718.
An open label, first in human phase Ulla study of once-weekly (QW) and twice-weekly (BIW) dosing schedules in patients with advanced solid tumours was undertaken.
4-week cycle: 1 hour intravenous (IV) infusions for 3 weeks, followed by a 1 week break.

[8] = Stability in plasma in vitro, mouse; format: in vitro ADME; conditions: 37° C.
Description: as §2

NCI-H292 = assay: In vitro cytotoxicity (CellTiter-Glo) NCI-H292; format: cell-based; conditions: NCI-H292, NSCLC
From the text: as §1

NCI-H1975 = assay: In vitro cytotoxicity (CellTiter-Glo) NCI-H1975; format: cell-based; conditions: NCI-H1975, NSCLC
From the text: as §1

[9] = Stability in plasma in vitro, human; format: in vitro ADME; conditions: 37° C.
Description: as §2

[10] = Stability in plasma in vitro, dog; format: in vitro ADME; conditions: 37° C.
Description: as §2

[11] = Plasma protein binding, monkey; format: in vitro ADME; conditions: read-out: free fraction
Description: as §3

COc1cc2cc(c1Cl)N(C)C(=O)C[C@H](OC(=O)[C@H](C)N(C)C(=O)CCSSC(C)CCC(=O)NCCC(=O)N(C)CC(=O)N(C)CC(=O)N(C)CC(=O)N(C)CC(=O)N(C)CC(=O)N(C)CC(=O)N(C)CC(=O)N(C)CC(=O)N(C)CC(=O)N(C)CC(=O)N[C@@H](C)C(=O)N[C@H]1CSCc3cc4cc(c3)CSC[C@H](NC(=O)[C@@H](C)NC(=O)[C@H](Cc3cccc5ccccc35)NC(=O)[C@H](CCC(=O)O)NC(=O)[C@H](CC(N)=O)NC(=O)[C@@H](C)NC1=O)C(=O)N[C@@H](CCC(=O)O)C(=O)N[C@@H](CC(=O)O)C(=O)N[C@@H](Cc1ccccc1)C(=O)N[C@@H](Cc1ccc(O)cc1)C(=O)N[C@@H](CC(=O)O)C(=O)N[C@@H](C(C)(C)C)C(=O)N[C@H](C(N)=O)CSC4)[C@]1(C)O[C@H]1[C@H](C)[C@@H]1C[C@@](O)(NC(=O)O1)[C@H](OC)/C=C/C=C(\C)C2 (stereo partly drawn) [BT1718] ({X1-βAla}-[Sar][Sar][Sar][Sar][Sar][Sar][Sar][Sar][Sar][Sar]AC[dA]NE[1Nal][dA]CEDFYD[Tle]C-NH2; linker 12-18-25 via TBMB (inferred))
IC50 (MOLP-8): 141 nM | distribution into blood cells [1]: limited distribution into blood cells | AUC [2]: 1.7 ± 0.3 µM·h | clearance [2]: 10.6 ± 1.5 mL/min/kg | half-life [2]: 0.43 ± 0.04 h | Cmax ([2]; read-out: C0/Cmax): 5.8 ± 0.94 µM | Vd ([2]; read-out: Vdss): 0.26 ± 0.08 L/kg | half-life [3]: > 5 h | half-life [4]: 2 to 4 h | half-life [5]: 2 to 4 h | fraction unbound [6]: 0.026 | IC50 (EBC-1): 27 nM | half-life [7]: > 24 h | DLTs (advanced solid tumors; 9.6 mg/m^2 BIW (cohort 5)): 2×DLTs (GGT, fatigue) and increased GGT (grade 4) and fatigue (grade 3) | Drug-related Alanine aminotransferase increased, number of patients, n = 28 (frequency) (advanced solid tumors; human, in vivo): 8 (28.6%) | Drug-related Anaemia, number of patients, n = 28 (frequency) (advanced solid tumors; human, in vivo): 7 (25.0%) | Drug-related Aspartate aminotransferase increased, number of patients, n = 28 (frequency) (advanced solid tumors; human, in vivo): 9 (32.1%) | Drug-related Blood alkaline phosphatase increased, number of patients, n = 28 (frequency) (advanced solid tumors; human, in vivo): 5 (17.9%) | Drug-related Decreased appetite, number of patients, n = 28 (frequency) (advanced solid tumors; human, in vivo): 9 (32.1%) | Drug-related Diarrhea, number of patients, n = 28 (frequency) (advanced solid tumors; human, in vivo): 10 (35.7%) | Drug-related Fatigue, number of patients, n = 28 (frequency) (advanced solid tumors; human, in vivo): 9 (32.1%) | Drug-related Gamma-glutamyltransferase increased, number of patients, n = 28 (frequency) (advanced solid tumors; human, in vivo): 5 (17.9%) | Drug-related Lethargy, number of patients, n = 28 (frequency) (advanced solid tumors; human, in vivo): 6 (21.4%) | Drug-related Nausea, number of patients, n = 28 (frequency) (advanced solid tumors; human, in vivo): 12 (42.9%) | Drug-related Neuropathy peripheral, number of patients, n = 28 (frequency) (advanced solid tumors; human, in vivo): 9 (32.1%) | Drug-related Vomiting, number of patients, n = 28 (frequency) (advanced solid tumors; human, in vivo): 9 (32.1%) | Grade 1-2 related peripheral neuropathy (advanced solid tumors; human, in vivo): occurred more commonly with increasing dose | RP2D for twice weekly dosing (advanced solid tumors; human, in vivo): 7.2 mg/m^2 | patients with related grade 1-3 gastrointestinal disorders (advanced solid tumors; including nausea, diarrhea and vomiting): 18/28 | tolerability (advanced solid tumors; once weekly dosing, dose levels tested): tolerable | half-life [8]: > 5 h | IC50 (NCI-H292): 11.6 nM | IC50 (NCI-H1975): 19.7 nM | half-life [9]: > 6 h | half-life [10]: > 6 h | fraction unbound [11]: 0.038
